The values below come from paper PMC11751033.

What is called Kd is the free concentration of one partner at which half of the binding sites on the other are occupied at equilibrium, for simple one-to-one binding. High values mean lower affinity, low ones higher affinity.

For the data set, the system named is ATF 3r (six-zinc-finger artificial transcription factor with NLS, VP64 and HA tag) (artificial/designed (expressed in E. coli BL21)). The experiment in a line: EMSA. The conditions noted are these: EMSA: 2.5% glycerol, 5 mM MgCl2, 0.05% NP-40, 50 mM KCl, 20 uL, 20 pmol DNA, 0 C 1 h; 4-8% native PAGE in TBE pH 8.2-8.4, 5 C, SYBR Safe stain; binding pH not …. (In EMSA bound probe runs differently from free probe, usually more slowly.)

IFNG target dsDNA (ATF 3 site): the equilibrium dissociation constant (Kd) is 5.2 nM.
